According to PMC4334968:

Key:
[1] = molecular target: endogenous retromer (Vps26, Vps29, Vps35) (human (endogenous in HeLa and HaCaT)) (UniProt Q96QK1); assay: proximity ligation
[2] = molecular target: human retromer trimer assembled from Vps26, Vps29 and GST-tagged Vps35, Q96QK1;Q9UBQ0;O75436; assay: pull-down on immobilized purified retromer trimer, anti-His immunoblot quantified; details: read off a plot

| Substance | percent decrease of the PLA signal against wild-type PsV at eight hours [1] [%] | ratio to parent ([2]; 5 µM MBP-L2, parent: est. 0.18) | ratio to parent ([2]; 10 µM MBP-L2, parent: est. 1.0) |
| --- | --- | --- | --- |
| HPV16 L2 double mutant (FYL/AAA and YYML/AAAA) with a carboxy-terminal 3xFLAG tag, in pseudovirus (from UniProt P03107 1-473) (natural protein) | 70 |  |  |
| Maltose binding protein (MBP)-L2-6His fusion protein, wild-type HPV16 L2 amino acids 434-457 F446A; Y447A; L448A |  | 0.2 | 0.28 |
| Maltose binding protein (MBP)-L2-6His fusion protein, wild-type HPV16 L2 amino acids 434-457 F446A; Y447A; L448A; Y452A; Y453A; M454A; L455A |  | 0.17 | 0.21 |
| Maltose binding protein (MBP)-L2-6His fusion protein, wild-type HPV16 L2 amino acids 434-457 Y452A; Y453A; M454A; L455A |  | 0.29 | 0.38 |
